# Test results as given in patent publication US20250325630A1, “HOMODIMER FUSION PROTEINS FOR TREATING ATOPIC DERMATITIS” (Intervet Inc., priority 2021, published 2025).
# B1: c44E2 H5k1: caninized rat 44E2 anti-canine IL-31Rα antibody; likely c44E2VH5-cIgGBm (SEQ ID NO: 43) with c44E2VL1-cCk (SEQ ID NO: 45) (antibody)
# heavy: ELTLQESGPGLVKPSQTLSLTCTVSGFSLTSNGVSWIRQRPGRGLEWMGAISSGGSTYYNSVLKSRISITADTAKNQFSLQLSSMTTEDTAVYYCARRLSGYNYVPFAYWGQGTLVTVSSASTTAPSVFPLAPSCGSTSGSTVALACLVSGYFPEPVTVSWNSGSLTSGVHTFPSVLQSSGLYSLSSMVTVPSSRWPSETFTCNVAHPASKTKVDKPVPKRENGRVPRPPDCPKCPAPEMLGGPSVFIFPPKPKDTLLIARTPEVTCVVVALDPEDPEVQISWFVDGKQMQTAKTQPREEQFAGTYRVVSVLPIGHQDWLKGKQFTCKVNNKALPSPIERTISKARGQAHQPSVYVLPPSREELSKNTVSLTCLIKDFFPPDIDVEWQSNGQQEPESKYRTTPPQLDEDGSYFLYSKLSVDKSRWQRGDTFICAVMHEALHNHYTQESLSHSPGK
# light: EIVMTQSPASLSLSQEEKVTITCKASQNIYKHLAWYQQKPGQAPKLLIYNANSLQTGVPSRFSGSGSGTDFSFTISSLEPEDVAVYYCQQYYSGDTFGAGTKVELKRNDAQPAVYLFQPSPDQLHTGSASVVCLLNSFYPKDINVKWKVDGVIQDTGIQESVTEQDKDSTYSLSSTLTMSSTEYLSHELYSCEITHKSLPSTLIKSFQRSECQRVD
# B2: cIL-4Rα-13Rα2 ZW1-cFc (Fc fusion)
# chain 1: VKVLHEPSCFSDYISTSVCQWKMDHPTNCSAELRLSYQLDFMGSENHTCVPENREDSVCVCSMPIDDAVEADVYQLDLWAGQQLLWSGSFQPSKHVKPRTPGNLTVHPNISHTWLLMWTNPYPTENHLHSELTYMVNVSNDNDPEDFKVYNVTYMGPTLRLAASTLKSGASYSARVRAWAQTYNSTWSDWSPSTTWLNYYEPWEQHLPPKRENGRVPRPPDCPKCPAPEMLGGPSVFIFPPKPKDTLLIARTPEVTCVVVDLDPEDPEVQISWFVDGKQMQTAKTQPREEQFNGTYRVVSVLPIGHQDWLKGKQFTCKVNNKALPSPIERTISKARGQAHQPSVYVYPPSREELSKNTVSLTCLIKDFFPPDIDVEWQSNGQQEPESKYRTTPPQLDEDGSYALVSKLSVDKSRWQRGDTFICAVMHEALHNHYTQESLSHSPGK
# chain 2: SMLSNAEIKVNPPQDFEIVDPGYLGYLSLQWQPPLFPDNFKECTIEYELKYRNIDSENWKTIITKNLHYKDGFDLNKGIEAKINTLLPAQCTNGSEVRSSWAETTYWTSPQGNRETKIQDMDCVYYNWQYLVCSWKPGMGVHFDTNYQLFYWYEGLDHSAECTDYIKVNGKNMGCRFPYLESSDYKDFYICVNGSSESQPIRPSYFIFQLQNIVKPMPPDYLSLTVKNSEEINLKWNMPKGPIPAKCFIYEIEFTEDGTTWVTTTVENEIQITRTSNESQKLCFLVRSKVNIYCSDDGIWSEWSDEQCWKGDIWKETPKRENGRVPRPPDCPKCPAPEMLGGPSVFIFPPKPKDTLLIARTPEVTCVVVDLDPEDPEVQISWFVDGKQMQTAKTQPREEQFNGTYRVVSVLPIGHQDWLKGKQFTCKVNNKALPSPIERTISKARGQAHQPSVYVLPPSREELSKNTVSLLCLIKDFFPPDIDVEWQSNGQQEPESKYLTWPPQLDEDGSYFLYSKLSVDKSRWQRGDTFICAVMHEALHNHYTQESLSHSPGK
# notes: also called cIL4Rα-IL13Rα2_ZW1-cFc; cIL-4Rα-IL13Rα2_ZW1-cFc
# B3: c10A12 H2L6: caninized rat 10A12 anti-canine IL-31Rα antibody; likely c10A12VH2-cIgGBm (SEQ ID NO: 27) with c10A12VL6-cCl (SEQ ID NO: 31) (antibody)
# heavy: EVQLVESGGDLVKPGGSLRLSCAASGFTFSNYYMAWVRQAPGKGLQWVASISTGGGNTYYRDSVKGRFTISRDNAKNTLYLQMNSLRAEDTAMYYCARHGTLYFDYWGQGTLVTVSSASTTAPSVFPLAPSCGSTSGSTVALACLVSGYFPEPVTVSWNSGSLTSGVHTFPSVLQSSGLYSLSSMVTVPSSRWPSETFTCNVAHPASKTKVDKPVPKRENGRVPRPPDCPKCPAPEMLGGPSVFIFPPKPKDTLLIARTPEVTCVVVALDPEDPEVQISWFVDGKQMQTAKTQPREEQFAGTYRVVSVLPIGHQDWLKGKQFTCKVNNKALPSPIERTISKARGQAHQPSVYVLPPSREELSKNTVSLTCLIKDFFPPDIDVEWQSNGQQEPESKYRTTPPQLDEDGSYFLYSKLSVDKSRWQRGDTFICAVMHEALHNHYTQESLSHSPGK
# light: QPVLTQPPSLSASLGTTARLTCERSSGDIGDSYVSWYQQKPGSPPRDVIYVDDQRPSEVSKSFSGSKDTSANAGLLLISGLQPEDEADYFCQSYDSNIDGPVFGGGTHLTVLGQPKASPSVTLFPPSSEELGANKATLVCLISDFYPSGVTVAWKADGSPVTQGVETTKPSKQSNNKYAASSYLSLTPDKWKSHSSFSCLVTHEGSTVEKKVAPAECS
# Assays:
# [1] = target: canine IL-31Rα; assay: ELISA binding of chimeric and caninized antibodies to canine IL-31Rα; conditions: FIG. 1-3, in words
# Description: The nucleotide and deduced amino acid sequence of the HC and LC of selected rat antibodies reactive with canine IL-31Rα was determined. The amino acid sequences representing the 3 HC CDRs and 3 LC CDRs for each antibody also were determined. These CDRs were used to develop caninized antibodies that bind canine IL-31Rα ECD. The binding of caninized antibodies to IL-31Rα was determined by ELISA as follows:
# • 1. Anti-Dog IgG (cFc specific)-Peroxidase (Sigma-Aldrich SAB3700109-1.5 MG) • 2. TMB-ELISA Substrate (Thermo-Fisher Cat #34028) • 3. PBS pH7.4 (Thermo-Fisher Cat #10010001) • 4. Tris Buffered Saline with Tween 20 (TBST) (Sigma-Aldrich T9039-10PAK)
# • 1. Coat immunoplates by cIL-31Rα in PBS buffer at 1 μg/mL, 100 μL/well. Incubate the plates at 37° C. for 1-2 hrs or 4° C. overnight. • 2. Wash the plates 3 times by TBST buffer. • 3. Block the plates by blocking buffer (0.5% BSA in TBST) for 45-60 minutes at room temperature. • 4. Three-fold dilute anti-cIL31-Ra antibodies with blocking buffer in dilution plates and transfer the diluted antibodies into the cIL-31Rα coated plates, incubate 45-60 minutes at room temperature. • 5. Wash the plates 3 times by TBST. • 6. Add 1:2000 diluted HRP conjugated anti-dog IgG Fc into the plates, incubate 45-60 minutes at room temperature. • 7. Wash the plates 3 times by TBST. • 8. […] Read the plates by plate reader at […].
# [2] = target: T1, canine IL-13 (canine, UniProt Q9N0W9 19-131, limits assumed, biotin-labeled in the Octet assay (site not stated)); assay: BLI (Octet HTX), biotin-cIL-13 on SA biosensors, fusion protein in solution, 1:1 fit
# T1 construct: Biotin-labeled and loaded on SA biosensors for the kinetics; unlabeled in the DH82 cell assay; also called cIL-13; canine Interleukin-13
# T1 sequence (looked up): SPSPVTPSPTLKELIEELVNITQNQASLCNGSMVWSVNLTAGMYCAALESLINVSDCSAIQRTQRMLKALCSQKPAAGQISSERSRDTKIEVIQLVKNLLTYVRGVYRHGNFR
# Description: (§1) The binding constants for the cFc fusion proteins provided in Tables 3 and 4 below, were determined using OCTET® HTX. All kinetics measurements were performed by OCTET® HTX using SA® biosensors and DATA ACQUISITION® 12.0 software. 10 μg/mL of biotin-labeled antigen, either canine IL-4 (cIL-4) or canine IL-13 (cIL-13) were loaded onto the SAR biosensors for 120 seconds. Next, the biosensors were placed into 1×pH 7.0 TBS/Casein buffer for 60 seconds for the blocking phase. For the association phase, antigen loaded biosensors were placed into 2-fold serial dilutions from 1 μM down to 15.6 nM of the wild-type, the bispecific, or the FcRn-mutant receptor Fc-fusions that recognized the cIL-4 or cIL-13 antigen in 1×pH 7.0 TBS/Casein buffer for 30 seconds. The last well was buffer alone and that sensor was used for reference sensor subtraction. Finally, the biosensors were placed into 1×pH 7.0 TBS/Casein buffer for 120 seconds for the dissociation phase. The results were then analyzed using Data Analysis 12.0 software and the curves were fitted using a 1:1 binding model.
# [3] = target: T2, canine IL-4 (canine, UniProt O77762 25-132, biotin-labeled in the Octet assay (site not stated)); assay: cell-based or functional assay
# T2 sequence (looked up): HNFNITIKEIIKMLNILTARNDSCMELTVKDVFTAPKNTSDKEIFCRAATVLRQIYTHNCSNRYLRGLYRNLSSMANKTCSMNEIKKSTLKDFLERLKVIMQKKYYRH
# [4] = target: T1, canine IL-13; assay: BLI (Octet); summary table, rounded from Table 4
# [5] = target: T1, canine IL-13; assay: cell-based or functional assay
# [6] = target: T2, canine IL-4; assay: cell-based or functional assay; remark: listed apart in the source
# [7] = target: T2, canine IL-4; assay: BLI (Octet HTX), biotin-cIL-4 on SA biosensors; ND = Binding Not Detected
# Description: as §1
# [8] = target: T1, canine IL-13; assay: cell-based or functional assay; remark: listed apart in the source
# [9] = target: T1, canine IL-13; assay: cell-based or functional assay; remark: listed apart in the source
Molecule,EC50 of binding to canine IL-31Rα compared with the corresponding chimeric antibody [1],Kd [2],koff [2],kon [2],IL-4 IC50 (inhibition of cIL-4 mediated STAT6 phosphorylation in DH82 cells) [3],Kd [4],"IL-13 (IC50), summary table [5]","IL-4 (IC50), summary table [6]",binding result [7],IL-13 IC50 (inhibition of cIL-13 mediated STAT6 phosphorylation in DH82 cells) [8],"fold change of the concentration that inhibits 50% of the cIL-13 mediated STAT6 phosphorylation in DH82 cells, against cIL-13Rα2-cFc [9]"
B1,most similar to the EC50 of the corresponding chimeric 44E2 antibody,–,–,–,–,–,–,–,–,–,–
B2,–,4.15 nM,0.000135 s⁻¹,32600 M⁻¹ s⁻¹,184 nM,4 nM,30 nM,200 nM,no binding (tested: 1 µM (highest concentration tested)),29.4 nM,~200 fold higher
B3,even lower than the EC50 for the corresponding chimeric 10A12 antibody,–,–,–,–,–,–,–,–,–,–
